Reference: patent US20230322958A1 (Genentech, published 2023)
Substitutions are numbered along the chain they refer to. Names may count otherwise. Read-outs that look alike come from different tables or passages of the source.

B1: rb.2430 (rabbit/human chimeric anti-Notch2 antibody 2430) (antibody, V domains shown)
VH: QSVEESGGRLVTPGTPLTLTCTVSGFSLSSYDMSWVRQAPGKGLEWIGIIQAGSNTLFYASWAKGRFTISKTSTTVDLKITSPTTEDTATYFCARGGVIFIIGHFNLWGPGTLVTVSS
VL: AQVLTQTASSVSAAVGGTVTINCQASQSVVNNRLAWYQQKPGQPPKLLMYGASTLESGVSSRFKGSGSGTQFTLTISGVQCDDAATYYCQGEFLCSSGDCVAFGGGTKVEIK
B2: hu1B2.L7H10 (antibody, V domains shown)
VH: EVQLVESGGGLVQPGGSLKLSCAVSGFTFSDFYMEWVRQASGKGLEWVAASRNKANDFSIVYSASVKDRFTISRDDSKSTAYLQMNSLKTEDTAVYYCSRDSGRWGLDAWGQGTLVTVSS
VL: DIQMTQSPSSVSASVGDRVTITCQTSEDIYSGLAWYQQKPGKSPKLLIYGASRLQDGVPSRFSGSGSGTDYTLTISSLQPEDFATYYCQQGFKYPLTFGGGTKVEIK
notes: Human IgG1 backbone
B3: hu1B2.L7H14 (antibody, V domains shown)
VH: B2 VH with A81L
VL: B2 VL
notes: Human IgG1 backbone; also called hu.1B2.DFS.H14L7
B4: hu.3107.L1H14 (antibody, V domains shown)
VH: EVQLVQSGAEVKKPGESLKISCKGSGYTFSNYVIHWVRQMPGKGPEWTGYIIPGSGGTKFNEKFKGQATISVDKSSTTAYLQWSSLKASDTAMYYCARDGAGSFTYWGQGTLVTVSS
VL: DVVMTQSPLSLPVTLGQPASISCRSSQSLVHSDGNTYLHWFQQRPGQSPRLLIYRISNRFSGVPDRFSGSGSGTDFTLKISRVEAEDVGVYYCLQSTHFPDTFGGGTKVEIK
notes: also called hu.Notch-3107.L1H14
B5: hu.3107.L1H15 (antibody, V domains shown)
VH: B4 VH with S76I
VL: B4 VL
notes: also called hu.Notch-3107.L1H15
B6: hu.3107.L6H12 (antibody, V domains shown)
VH: EVQLVQSGAEVKKPGASVKVSCKASGYTFSNYVIHWVRQAPGQGPEWTGYIIPGSGGTKFNEKFKGRATSTVDTSSTTAYMELSRLRSDDTVVYYCARDGAGSFTYWGQGTLVTVSS
VL: DVVMTQSPDSLAVSLGERATINCRSSQSLVHSDGNTYLHWFQQKPGQPPKLLIYRISNRFSGVPDRFSGSGSGTDFTLTISSLQAEDVAVYYCLQSTHFPDTFGGGTKVEIK
notes: also called hu.Notch-3107.L6H12
B7: hu.3107.L6H13 (antibody, V domains shown)
VH: B6 VH with S76I
VL: B6 VL
notes: also called hu.Notch-3107.L6H13
B8: hu.3107.L7H12 (antibody, V domains shown)
VH: B6 VH
VL: B6 VL with V2I, F41Y
notes: also called hu.Notch-3107.L7H12
B9: hu.3107.L7H13 (antibody, V domains shown)
VH: B6 VH with S76I
VL: B6 VL with V2I, F41Y
notes: also called hu.Notch-3107.L7H13
B10: hu.3107.L6H14 (antibody, V domains shown)
VH: B4 VH
VL: B6 VL
notes: also called hu.Notch-3107.L6H14
B11: hu.3107.L6H15 (antibody, V domains shown)
VH: B4 VH with S76I
VL: B6 VL
notes: also called hu.Notch-3107.L6H15
B12: hu.3107.L7H14 (antibody, V domains shown)
VH: B4 VH
VL: B6 VL with V2I, F41Y
notes: also called hu.Notch-3107.L7H14
B13: hu.3107.L7H15 (antibody, V domains shown)
VH: B4 VH with S76I
VL: B6 VL with V2I, F41Y
notes: also called hu.Notch-3107.L7H15
B14: hu.3107.L1H12 (antibody, V domains shown)
VH: B6 VH
VL: B4 VL
notes: also called hu.Notch-3107.L1H12
B15: hu.3107.L1H13 (antibody, V domains shown)
VH: B6 VH with S76I
VL: B4 VL
notes: also called hu.Notch-3107.L1H13
B16: 1B2.v104.huFab.LC_K149C (Fab, V domains shown)
VH: B2 VH with S51Q, A81L, S102G, R104K, W105L, G106A
VL: DIQMTQSPSSVSASVGDRVTITCQTSEDIYSGLAWYQQKPGKSPKLLIYGASRLQDGVPSRFSGSGSGTDYTLTISSLQPEDFATYYCQQGFKYPLTFGGGTKVEIKR
B17: 1B2.v104.huFab.LC_K149C.dPEG6_dimer (other)
heavy: EVQLVESGGGLVQPGGSLKLSCAVSGFTFSDFYMEWVRQASGKGLEWVAAQRNKANDFSIVYSASVKDRFTISRDDSKSTLYLQMNSLKTEDTAVYYCSRDGGKLALDAWGQGTLVTVSSASTKGPSVFPLAPSSKSTSGGTAALGCLVKDYFPEPVTVSWNSGALTSGVHTFPAVLQSSGLYSLSSVVTVPSSSLGTQTYICNVNHKPSNTKVDKKVEPKSCD
light: DIQMTQSPSSVSASVGDRVTITCQTSEDIYSGLAWYQQKPGKSPKLLIYGASRLQDGVPSRFSGSGSGTDYTLTISSLQPEDFATYYCQQGFKYPLTFGGGTKVEIKRTVAAPSVFIFPPSDEQLKSGTASVVCLLNNFYPREAKVQWCVDNALQSGNSQESVTEQDSKDSTYSLSSTLTLSKADYEKHKVYACEVTHQGLSSPVTKSFNRGEC
modifications: engineered Cys (K149C) joined through maleimide to Bis-Mal-PEG6
B18: 1B2.v104.huFab.LC_K149C.dPEG11_dimer (other)
heavy: B17 heavy
light: B17 light
modifications: engineered Cys (K149C) joined through maleimide to Bis-Mal-PEG11
B19: 1B2.v104.huFab.LC_K149C.dPEG19_dimer (other)
heavy: B17 heavy
light: B17 light
modifications: engineered Cys (K149C) joined through maleimide to Bis-Mal-PEG19
B20: 1B2.v104.huFab.LC_K149C.dPEG_4-arm-Mal-3kD (other)
heavy: B17 heavy
light: B17 light
modifications: engineered Cys (K149C) joined through maleimide to a 4-arm maleimide dPEG linker (3 kD)
B21: 1B2.v104.huFab.LC_K149C.PEG_4-arm-Mal-10kD (other)
heavy: B17 heavy
light: B17 light
modifications: engineered Cys (K149C) joined through maleimide to a 4-arm maleimide PEG linker (10 kD)
B22: 1B2.v104.huFab.LC_K149C.PEG_6-arm-Mal-6kD (other)
heavy: B17 heavy
light: B17 light
modifications: engineered Cys (K149C) joined through maleimide to 6ARM(DP)-MAL-6000
B23: rb.2621 (rabbit/human chimeric anti-Notch2 antibody 2621) (antibody, V domains shown)
VH: QSLEESGGGLVQPGASLTLTCTASGFSFSSGYDMCWVRQAPGKGLEWIACIVTVSGNTYYASWAKGRFTISKTSSTTVTLQMTSLTAADTATYFCARDGGFTDTWYFHLWGPGTLVTVSS
VL: AYDMTQTPASVEVAVGGTVTIKCQASESIGSYLAWYQQKPGQPPKLLIYRASTLASGVPSRFKGSGSGTEFTLTISGVQCDDAATYYCQQTYSGAGVDNLFGGGTKVEIK
B24: rb.2338 (rabbit/human chimeric anti-Notch2 antibody 2338) (antibody, V domains shown)
VH: QSLEESGGDLVKPGASLTLTCTASGFSFSSGYDMCWVRQAPGKGLEWIACIYAGSEGFTYYASWAKGRFTISKSSSTTVTLQMTSLTVADTATYFCARWTDSDGSNLWGPGTLVTVSS
VL: DVVMTQTPASVEAAVGGTVTIKCQASQSISSYLAWYQQKPGQPPKLLIYRASKLASGVPSRFSGRGSGTQFTLTISDLECADAATYYCQSNSYGNNWVGGFGGGTKVEIK

Key:
[1] = target: T1, human Notch2 on U-87 MG cells (human, UniProt Q04721 26-2471); assay: cell-based or functional assay
[2] = target: T2, huNotch2-EGF6-10 (human, UniProt Q04721 219-418); assay: SPR BIAcore T200, antibody captured on protein A, 37 C
T2 construct: also called human Notch2 EGF6-10
T2 sequence: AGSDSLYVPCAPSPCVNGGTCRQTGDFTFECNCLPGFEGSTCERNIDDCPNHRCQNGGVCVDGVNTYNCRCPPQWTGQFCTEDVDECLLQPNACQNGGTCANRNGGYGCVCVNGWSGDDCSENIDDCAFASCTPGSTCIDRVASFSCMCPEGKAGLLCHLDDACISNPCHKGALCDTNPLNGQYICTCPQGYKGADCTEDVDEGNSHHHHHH
Procedure: (§1) The binding affinities of the antibodies was determined by BIAcore™ T200 machine. Rabbit antibodies were expressed as chimeric antibodies with rabbit variable domains and human constant domains. Rat antibodies were expressed as chimeric antibodies with rat variable domains and human constant regions. Humanized antibodies were expressed in the human IgG1 backbone. For kinetics measurements, antibodies were captured on research grade protein A chip (GE Healthcare) to achieve approximately 300 RU. Ten-fold serial dilutions of huNotch2-EGF6-10 were injected in HBS-P buffer with additional 3 mM CaCl₂ at 37° C. with a flow rate of 100 μL/min. Association rates (ka) and dissociation rates (kd) were calculated using a 1:1 Langmuir binding model (BIAcore™ T200 Evaluation Software version 2.0). The equilibrium dissociation constant (KD) was calculated as the ratio kd/ka.

[3] = target: T2, huNotch2-EGF6-10; assay: SPR BIAcore, separate experiment, substantially as for Table 4
Procedure: as §1
In a separate experiment, the binding affinities of the humanized versions of the rat 3107 antibody were determined, substantially as described above.

[4] = target: T1, human Notch2 on U-87 MG cells; assay: cell-based or functional assay; remark: listed apart in the source
[5] = target: T1, human Notch2 on U-87 MG cells; assay: cell-based or functional assay; remark: listed apart in the source

T1 sequence (Q04721 26-2471): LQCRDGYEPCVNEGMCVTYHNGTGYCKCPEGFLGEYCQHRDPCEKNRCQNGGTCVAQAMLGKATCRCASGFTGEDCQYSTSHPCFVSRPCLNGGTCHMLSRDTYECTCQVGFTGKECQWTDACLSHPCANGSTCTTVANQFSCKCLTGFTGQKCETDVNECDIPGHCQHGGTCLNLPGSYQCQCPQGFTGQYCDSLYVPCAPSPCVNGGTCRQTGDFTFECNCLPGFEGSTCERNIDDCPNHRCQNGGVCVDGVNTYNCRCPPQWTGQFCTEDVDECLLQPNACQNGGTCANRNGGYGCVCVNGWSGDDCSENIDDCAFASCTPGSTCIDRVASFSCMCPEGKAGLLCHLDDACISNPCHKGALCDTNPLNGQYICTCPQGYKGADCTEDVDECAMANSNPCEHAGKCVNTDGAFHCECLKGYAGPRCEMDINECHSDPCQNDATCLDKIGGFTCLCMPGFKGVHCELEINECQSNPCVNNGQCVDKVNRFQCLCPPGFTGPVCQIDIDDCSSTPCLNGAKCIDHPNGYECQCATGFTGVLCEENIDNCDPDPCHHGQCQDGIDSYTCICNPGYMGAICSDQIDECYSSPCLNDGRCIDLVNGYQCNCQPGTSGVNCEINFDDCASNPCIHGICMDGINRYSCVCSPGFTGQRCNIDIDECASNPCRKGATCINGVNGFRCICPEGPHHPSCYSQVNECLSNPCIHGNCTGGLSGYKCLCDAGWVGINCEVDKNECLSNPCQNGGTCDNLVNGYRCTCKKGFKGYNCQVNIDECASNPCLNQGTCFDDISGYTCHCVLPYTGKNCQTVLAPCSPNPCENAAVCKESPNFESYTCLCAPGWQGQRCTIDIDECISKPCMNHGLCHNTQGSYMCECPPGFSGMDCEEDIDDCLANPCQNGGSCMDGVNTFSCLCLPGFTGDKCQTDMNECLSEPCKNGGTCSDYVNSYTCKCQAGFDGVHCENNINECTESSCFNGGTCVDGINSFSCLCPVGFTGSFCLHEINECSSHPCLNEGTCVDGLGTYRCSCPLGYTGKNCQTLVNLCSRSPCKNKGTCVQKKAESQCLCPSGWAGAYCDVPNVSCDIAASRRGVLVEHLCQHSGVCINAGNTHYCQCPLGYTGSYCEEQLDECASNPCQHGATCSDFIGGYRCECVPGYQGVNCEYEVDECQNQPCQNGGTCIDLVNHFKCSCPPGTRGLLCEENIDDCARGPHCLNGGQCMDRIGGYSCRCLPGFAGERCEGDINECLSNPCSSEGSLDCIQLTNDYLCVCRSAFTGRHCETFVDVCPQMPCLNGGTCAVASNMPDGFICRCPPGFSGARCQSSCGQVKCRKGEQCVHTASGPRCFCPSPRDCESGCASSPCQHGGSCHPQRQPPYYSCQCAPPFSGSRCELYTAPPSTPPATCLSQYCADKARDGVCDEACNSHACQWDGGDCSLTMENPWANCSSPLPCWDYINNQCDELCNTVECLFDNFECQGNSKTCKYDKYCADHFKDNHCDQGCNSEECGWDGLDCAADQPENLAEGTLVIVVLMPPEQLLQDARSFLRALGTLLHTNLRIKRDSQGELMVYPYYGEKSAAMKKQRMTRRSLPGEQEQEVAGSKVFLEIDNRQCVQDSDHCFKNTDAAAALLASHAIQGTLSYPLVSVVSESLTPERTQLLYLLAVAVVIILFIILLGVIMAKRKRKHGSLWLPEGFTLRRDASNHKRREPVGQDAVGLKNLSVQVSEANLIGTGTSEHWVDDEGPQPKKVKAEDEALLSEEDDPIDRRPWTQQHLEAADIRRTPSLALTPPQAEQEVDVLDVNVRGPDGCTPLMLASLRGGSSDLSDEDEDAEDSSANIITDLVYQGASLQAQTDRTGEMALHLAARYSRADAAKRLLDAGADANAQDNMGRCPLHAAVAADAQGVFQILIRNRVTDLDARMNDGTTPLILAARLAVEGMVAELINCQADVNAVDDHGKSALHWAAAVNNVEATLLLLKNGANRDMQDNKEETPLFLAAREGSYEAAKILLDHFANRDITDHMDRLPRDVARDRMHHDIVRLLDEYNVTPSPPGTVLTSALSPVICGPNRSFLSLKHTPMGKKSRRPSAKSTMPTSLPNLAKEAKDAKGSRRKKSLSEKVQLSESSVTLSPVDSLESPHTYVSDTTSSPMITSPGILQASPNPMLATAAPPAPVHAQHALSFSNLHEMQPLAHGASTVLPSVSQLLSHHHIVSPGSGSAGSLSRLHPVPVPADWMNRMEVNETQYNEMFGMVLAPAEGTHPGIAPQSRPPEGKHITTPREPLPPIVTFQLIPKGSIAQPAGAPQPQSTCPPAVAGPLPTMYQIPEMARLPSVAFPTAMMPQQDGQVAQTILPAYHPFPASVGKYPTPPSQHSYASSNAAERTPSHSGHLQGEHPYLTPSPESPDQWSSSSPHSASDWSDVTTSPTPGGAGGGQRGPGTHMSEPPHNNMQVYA

| Binder | Kd [3] | koff [3] | kon [3] | Jagged1 IC50 [4] | other results |
| --- | --- | --- | --- | --- | --- |
| B1 |  |  |  |  | Jagged1 IC50 [1]: 1.03 nM |
| B2 |  |  |  |  | Kd [2]: 9.94 nM; koff [2]: 0.00415 s⁻¹; kon [2]: 418000 M⁻¹ s⁻¹ |
| B3 |  |  |  |  | Kd [2]: 6.13 nM; koff [2]: 0.00134 s⁻¹; kon [2]: 219000 M⁻¹ s⁻¹ |
| B4 | 17.5 nM | 0.00631 s⁻¹ | 360000 M⁻¹ s⁻¹ | 6.95 nM |  |
| B5 | 17.9 nM | 0.00634 s⁻¹ | 355000 M⁻¹ s⁻¹ | 6.08 nM |  |
| B6 | 9.79 nM | 0.00404 s⁻¹ | 413000 M⁻¹ s⁻¹ | 4.71 nM |  |
| B7 | 9.47 nM | 0.00424 s⁻¹ | 448000 M⁻¹ s⁻¹ | 6.42 nM |  |
| B8 | 9.54 nM | 0.00367 s⁻¹ | 384000 M⁻¹ s⁻¹ | 11 nM |  |
| B9 | 9.94 nM | 0.00353 s⁻¹ | 355000 M⁻¹ s⁻¹ | 5.94 nM |  |
| B10 | 10 nM | 0.00354 s⁻¹ | 354000 M⁻¹ s⁻¹ | 6.65 nM |  |
| B11 | 9.23 nM | 0.00365 s⁻¹ | 396000 M⁻¹ s⁻¹ | 8.03 nM |  |
| B12 | 10.4 nM | 0.00359 s⁻¹ | 346000 M⁻¹ s⁻¹ | 10.5 nM |  |
| B13 | 11.6 nM | 0.00407 s⁻¹ | 350000 M⁻¹ s⁻¹ | 9.16 nM |  |
| B14 | 14.3 nM | 0.00542 s⁻¹ | 380000 M⁻¹ s⁻¹ | 7.85 nM |  |
| B15 | 15.5 nM | 0.00587 s⁻¹ | 379000 M⁻¹ s⁻¹ | 4.92 nM |  |
| B16 |  |  |  |  | DLL Inhibition (IC50) [5]: 50 nM; Jag1 Inhibition (IC50) [5]: 120 nM |
| B17 |  |  |  |  | DLL Inhibition (IC50) [5]: > 1000 nM |
| B18 |  |  |  |  | DLL Inhibition (IC50) [5]: > 1000 nM |
| B19 |  |  |  |  | DLL Inhibition (IC50) [5]: > 1000 nM |
| B20 |  |  |  |  | DLL Inhibition (IC50) [5]: > 500 nM; Jag1 Inhibition (IC50) [5]: 0.35 nM |
| B21 |  |  |  |  | DLL Inhibition (IC50) [5]: > 500 nM; Jag1 Inhibition (IC50) [5]: 0.27 nM |
| B22 |  |  |  |  | DLL Inhibition (IC50) [5]: > 400 nM; Jag1 Inhibition (IC50) [5]: 0.21 nM |
| B23 |  |  |  |  | Jagged1 IC50 [1]: 0.667 nM |
| B24 |  |  |  |  | Jagged1 IC50 [1]: 3.53 nM |
